Assay results reported in US20250339569A1 (3B PHARMACEUTICALS, published 2025).
Starred links: 1 amine or outer side, 2 acyl side, 3 side chain; linkers in the order of their positions; H or OH if unused. Positions of bridges follow the written chain, without caps; N, C: chain ends. Non-standard residues stand in square brackets, D forms with d. Primed or numbered codes have the meaning given here. *: point of attachment. Aph(2Ta5Sa)″ = 4-amino-L-phenylalanine, ring amine acylated by 5-sulfamoyl-thiophene-2-carboxylic acid, NS(=O)(=O)c1ccc(C(=O)Nc2ccc(C[C@H](N[*:1])C(=O)[*:2])cc2)s1; Af3(2Ta5Sa) = 3-amino-L-phenylalanine, ring amine acylated by 5-sulfamoyl-thiophene-2-carboxylic acid, NS(=O)(=O)c1ccc(C(=O)Nc2cccc(C[C@H](N[*:1])C(=O)[*:2])c2)s1; Af3(3Ta5Sa) = 3-aminophenylalanine, ring amine acylated with 5-sulfamoylthiophene-3-carboxylic acid, NS(=O)(=O)c1cc(C(=O)Nc2cccc(C[C@H](N[*:1])C(=O)[*:2])c2)cs1; Aph(2Ta5Sa) = 4-aminophenylalanine, ring amine acylated with 5-sulfamoylthiophene-2-carboxylic acid, NS(=O)(=O)c1ccc(C(=O)Nc2ccc(C[C@H](N[*:1])C(=O)[*:2])cc2)s1; Aph(3Ta5Sa) = 4-aminophenylalanine, ring amine acylated with 5-sulfamoylthiophene-3-carboxylic acid, NS(=O)(=O)c1cc(C(=O)Nc2ccc(C[C@H](N[*:1])C(=O)[*:2])cc2)cs1; Af3(3MSaBz) = 3-aminophenylalanine, ring amine acylated with 3-(sulfamoylmethyl)benzoic acid, NS(=O)(=O)Cc1cccc(C(=O)Nc2cccc(C[C@H](N[*:1])C(=O)[*:2])c2)c1; Aph(3MSaBz) = 4-aminophenylalanine, ring amine acylated with 3-(sulfamoylmethyl)benzoic acid, NS(=O)(=O)Cc1cccc(C(=O)Nc2ccc(C[C@H](N[*:1])C(=O)[*:2])cc2)c1; Af3(HO-Glutar) = 3-aminophenylalanine acylated on the ring amine with glutaric acid (free COOH), O=C(CCCC(=O)[*:3])Nc1cccc(C[C@H](N[*:1])C(=O)[*:2])c1; Af3(3SaBz) = 3-aminophenylalanine, ring amine acylated with 3-sulfamoylbenzoic acid, NS(=O)(=O)c1cccc(C(=O)Nc2cccc(C[C@H](N[*:1])C(=O)[*:2])c2)c1; Af3(4SaBz) = 3-aminophenylalanine, ring amine acylated with 4-sulfamoylbenzoic acid, NS(=O)(=O)c1ccc(C(=O)Nc2cccc(C[C@H](N[*:1])C(=O)[*:2])c2)cc1; Af3(OPyAc) = 3-aminophenylalanine, ring amine acylated with 2-(2-oxopyridin-1-yl)acetic acid, O=C(Cn1ccccc1=O)Nc1cccc(C[C@H](N[*:1])C(=O)[*:2])c1; Aph(3SaBz) = 4-aminophenylalanine, ring amine acylated with 3-sulfamoylbenzoic acid, NS(=O)(=O)c1cccc(C(=O)Nc2ccc(C[C@H](N[*:1])C(=O)[*:2])cc2)c1; Aph(SaPr)(4) = 4-aminophenylalanine, ring amine acylated with 3-sulfamoylpropanoic acid, NS(=O)(=O)CCC(=O)Nc1ccc(C[C@H](N[*:1])C(=O)[*:2])cc1; Aph(SaPr) = 4-amino-L-phenylalanine, ring amine acylated by 3-sulfamoylpropanoic acid, NS(=O)(=O)CCC(=O)Nc1ccc(C[C@H](N[*:1])C(=O)[*:2])cc1; Af3(SaPr) = 3-aminophenylalanine, ring amine acylated with 3-sulfamoylpropanoic acid, NS(=O)(=O)CCC(=O)Nc1cccc(C[C@H](N[*:1])C(=O)[*:2])c1; Af3(HO-Succinyl)″ = 3-aminophenylalanine, ring amine acylated with succinic acid, O=C(CCC(=O)[*:3])Nc1cccc(C[C@H](N[*:1])C(=O)[*:2])c1; Aph(HYDAc) = 4-amino-L-phenylalanine, ring amine acylated by hydantoin-5-acetic acid; Phe(3-NHCO(CH2)3SO2NH2) = N[C@@H](Cc1cccc(NC(=O)CCCS(N)(=O)=O)c1)C(=O)O; APAc″ = 2-(4-(amino)piperidin-1-yl)acetic acid, NC1CCN(CC(=O)*)CC1; DOTA = O=C(O)CN1CCN(CC(=O)O)CCN(CC(=O)*)CCN(CC(=O)O)CC1; Phe(3,4-Cl2) = N[C@@H](Cc1ccc(Cl)c(Cl)c1)C(=O)O; Phe(3-CF3) = N[C@@H](Cc1cccc(C(F)(F)F)c1)C(=O)O; mXylylene = c1cc(C[*:1])cc(C[*:2])c1; N4AzPhCONH2 = not defined here; N4DazPhCN = not defined here; N6MeQuion = not defined here; PPAc″ = not defined here; APAc = not defined here; Dap = NC[C@H](N)C(=O)O

Assays:
[1] = biological target: T1, human carbonic anhydrase IX (CAIX) (human, UniProt Q16790 38-459); assay: FACS competition, HT-29 cells, tracer 3BP-4149; pIC50 category A: >8.0
Protocol: (§1) CAIX-expressing human HT-29 colorectal cancer cells (DSMZ, RRID: CVCL_0320) were cultured in McCoys's 5A modified medium (Biochrom, #F1015) including 10% fetal calf serum (FCS), 2 mM L-glutamine, 100 U/ml penicillin and 100 μg/mL streptomycin. Cells were detached with Accutase (Biolegend, #423201) and washed in FACS buffer (PBS including 1% FCS). Cells were diluted in FACS buffer to a final concentration of 500.000 cells per ml. 200 μL of the cell suspension were transferred to a u-shaped non-binding 96-well plate (Greiner) and cells were washed in ice-cold FACS buffer.
(§2) When biotinylated compounds were used an additional incubation step with 1 μg/mL APC-Streptavidin (Miltenyi; #130-106-791) in 50 μL FACS buffer for 30 minutes on ice was performed.
(§3) Cells were washed twice with ice-cold FACS buffer and analyzed in an Attune NxT flow cytometer (Thermo Fisher). Median fluorescence intensities (MFI) of the APC/Cy5-channel were calculated by Attune NxT software.

[2] = biological target: T2, Fc-fusion protein of human carbonic anhydrase IX (human, UniProt Q16790 38-414); assay: SPR, captured hCAIX-Fc; pKD category A: >8.0
[3] = biological target: T2, Fc-fusion protein of human carbonic …; assay: SPR, captured hCAIX-Fc; t1/2 category A: >15.0 min
Protocol: (§4) Stock solutions of test compounds were prepared by dissolving each compound in DMSO. DMSO stock solution were diluted 1:1000 in Running Buffer without DMSO. […] SPR binding analyses were performed in Single Cycle Kinetic (SCK) mode at 25° C.
(§5) For each test compound, SPR raw data in the form of resonance units (RU) were plotted as sensorgrams using the Biacore™ T200 control software. The signal from the blank sensorgram was subtracted from that of the test compound sensorgram (blank corrected). The blank corrected sensorgram was corrected for baseline drift by subtracting the sensorgram of a SCK run without the test compound (running buffer only). […] Raw data and fit results were imported as text files in IDBS. The pKD value (negative decadic logarithm of dissociation constant) was calculated in the IDBS excel template.

[4] = biological target: T1, human carbonic anhydrase IX (CAIX); assay: FACS competition, HT-29 cells, tracer 3BP-4149; pIC50 category B: 7.1-8.0
Protocol: as §1, §2, §3

[5] = biological target: T2, Fc-fusion protein of human carbonic …; assay: SPR, captured hCAIX-Fc; t1/2 category B: 5.1-15.0 min
Protocol: as §4, §5

Binder	pIC50 [1] [pic50]	pKD [2] [pkd]	t1/2 (half-life of the complex, SPR) [3] [min]	pIC50 [4] [pic50]	t1/2 (half-life of the complex, SPR) [5] [min]
{DOTA-APAc″}-VYCE[dP]D[Af3(HO-Glutar)]LTWSC-NH2 (linker 3-12 via mXylylene) [3BP-4367]	> 8	> 8	> 15		
{DOTA-APAc}-VYCE[dP]D[Phe(3-NHCO(CH2)3SO2NH2)]LTWSC-NH2 (linker 3-12 via mXylylene; reading uncertain) [3BP-4369]	> 8	> 8	> 15		
{DOTA-APAc}-VYCE[dP]D[Af3(OPyAc)]LTWSC-NH2 (linker 3-12 via mXylylene; reading uncertain) [3BP-4370]				7.1 to 8	
{DOTA-APAc}-VDCE[dP]D[Af3(HO-Succinyl)″]LTW[Dap]C-NH2 (lactam 2-11; linker 3-12 via mXylylene; reading uncertain) [3BP-4377]	> 8	> 8	> 15		
{DOTA-APAc}-VYCE[dP]E(N4AzPhCONH2)WLTWSC-NH2 (linker 3-12 via mXylylene; reading uncertain) [3BP-4388]				7.1 to 8	
{DOTA-APAc}-VYCE[dP]E(N4DazPhCN)WLTWSC-NH2 (linker 3-12 via mXylylene; reading uncertain) [3BP-4389]				7.1 to 8	
{DOTA-APAc}-VYCE[dP]E(N6MeQuion)WLTWSC-NH2 (linker 3-12 via mXylylene; reading uncertain) [3BP-4390]				7.1 to 8	
{DOTA-APAc}-VYCE[dP]D[Aph(3MSaBz)]LTWSC-NH2 (linker 3-12 via mXylylene; reading uncertain) [3BP-4399]				7.1 to 8	
{DOTA-APAc}-VYCE[dP]D[Aph(SaPr)(4)]LTWSC-NH2 (linker 3-12 via mXylylene; reading uncertain) [3BP-4400]	> 8	> 8	> 15		
{DOTA-APAc}-VYCE[dP]D[Aph(3Ta5Sa)]LTWSC-NH2 (linker 3-12 via mXylylene; reading uncertain) [3BP-4401]	> 8	> 8	> 15		
{DOTA-APAc}-VYCE[dP]D[Aph(2Ta5Sa)]LTWSC-NH2 (linker 3-12 via mXylylene; reading uncertain) [3BP-4402]	> 8	> 8	> 15		
{DOTA-APAc}-VYCE[dP]D[Af3(4SaBz)]LTWSC-NH2 (linker 3-12 via mXylylene; reading uncertain) [3BP-4405]	> 8	> 8	> 15		
{DOTA-APAc}-VYCE[dP]D[Af3(3MSaBz)]LTWSC-NH2 (linker 3-12 via mXylylene; reading uncertain) [3BP-4406]	> 8	> 8	> 15		
{DOTA-APAc}-VYCE[dP]D[Af3(SaPr)]LTWSC-NH2 (linker 3-12 via mXylylene; reading uncertain) [3BP-4407]	> 8	> 8	> 15		
{DOTA-APAc}-VYCE[dP]D[Aph(3SaBz)]LTWSC-NH2 (linker 3-12 via mXylylene; reading uncertain) [3BP-4408]	> 8	> 8	> 15		
{DOTA-APAc}-VYCE[dP]D[Af3(3SaBz)]LTWSC-NH2 (linker 3-12 via mXylylene; reading uncertain) [3BP-4409]	> 8	> 8	> 15		
{DOTA-APAc}-VYCE[dP]D[Af3(3Ta5Sa)]LTWSC-NH2 (linker 3-12 via mXylylene; reading uncertain) [3BP-4412]	> 8	> 8	> 15		
{DOTA-APAc}-VYCE[dP]D[Af3(2Ta5Sa)]LTWSC-NH2 (linker 3-12 via mXylylene; reading uncertain) [3BP-4413]	> 8	> 8	> 15		
{DOTA-APAc}-VDCE[dP]D[Phe(3,4-Cl2)]LTW[Dap]C-NH2 (lactam 2-11; linker 3-12 via mXylylene; reading uncertain) [3BP-4439]	> 8	> 8			5.1 to 15
{DOTA-APAc}-VDCE[dP]D[Phe(3-CF3)]LTW[Dap]C-NH2 (lactam 2-11; linker 3-12 via mXylylene; reading uncertain) [3BP-4440]	> 8	> 8			5.1 to 15
{DOTA-APAc}-VDCE[dP]D[Phe(3-NHCO(CH2)3SO2NH2)]LTW[Dap]C-NH2 (lactam 2-11; linker 3-12 via mXylylene; reading uncertain) [3BP-4445]	> 8	> 8	> 15		
{DOTA-PPAc″}-YCE[dP]D[Aph(2Ta5Sa)″]LTWSC-NH2 (linker 2-11 via mXylylene; reading uncertain) [3BP-4457]	> 8	> 8			5.1 to 15
{DOTA-APAc}-VYCE[dP]D[Aph(HYDAc)]LTWSC-NH2 (linker 3-12 via mXylylene; reading uncertain) [3BP-4458]				7.1 to 8	
{DOTA}-DCE[dP]D[Phe(3-NHCO(CH2)3SO2NH2)]LTW[Dap]C-NH2 (lactam 1-10; linker 2-11 via mXylylene; SMILES CC(C)C[C@@H]1NC(=O)[C@H](Cc2cccc(NC(=O)CCCS(N)(=O)=O)c2)NC(=O)[C@H](CC(=O)O)NC(=O)[C@H]2CCCN2C(=O)[C@H](CCC(=O)O)NC(=O)[C@@H]2CSCc3cccc(c3)CSC[C@@H](C(N)=O)NC(=O)[C@H](CNC(=O)C[C@H](NC(=O)CN3CCN(CC(=O)O)CCN(CC(=O)O)CCN(CC(=O)O)CC3)C(=O)N2)NC(=O)[C@H](Cc2c[nH]c3ccccc23)NC(=O)[C@H]([C@@H](C)O)NC1=O) [3BP-4488]	> 8	> 8	> 15		
{DOTA}-DCE[dP]D[Aph(SaPr)]LTW[Dap]C-NH2 (lactam 1-10; linker 2-11 via mXylylene; SMILES CC(C)C[C@@H]1NC(=O)[C@H](Cc2ccc(NC(=O)CCS(N)(=O)=O)cc2)NC(=O)[C@H](CC(=O)O)NC(=O)[C@H]2CCCN2C(=O)[C@H](CCC(=O)O)NC(=O)[C@@H]2CSCc3cccc(c3)CSC[C@@H](C(N)=O)NC(=O)[C@H](CNC(=O)C[C@H](NC(=O)CN3CCN(CC(=O)O)CCN(CC(=O)O)CCN(CC(=O)O)CC3)C(=O)N2)NC(=O)[C@H](Cc2c[nH]c3ccccc23)NC(=O)[C@H]([C@@H](C)O)NC1=O) [3BP-4489]	> 8	> 8	> 15		
